The values that follow come from US20260042834A1 (HBM ALPHA THERAPEUTICS, published 2026).

Where “and” joins values, the source holds several entries; their conditions need not be identical. Identical values can stand only once. Where only a bound is given, the exact number is not on record here.

For test [1], the target named is T1, corticotropin-releasing hormone (CRH) peptide (human and mouse (same sequence), not fully specified).
T1 peptide: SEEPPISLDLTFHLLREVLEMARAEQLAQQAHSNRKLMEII
Kind of test: cell-based or functional assay.

Another test addresses T2, CRH (CT-Biotin) (human and mouse (same sequence), biotin on an added C-terminal K (CRH-K-Biotin)).
T2 construct: also called Peptide 4 (CRH-Biotin)
T2 peptide: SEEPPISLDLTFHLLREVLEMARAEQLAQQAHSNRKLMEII
As to the kind of experiment: ELISA, biotinylated CRH on streptavidin plate. On the procedure:
(§1) Streptavidin (Thermo, Cat: 21125) was diluted in PBS to a concentration of 2 μg/ml. 100 μl of diluted streptavidin was added per well to ELISA microplates, and the plates were incubated overnight at 4° C. […] 100 μL of 3,3′,5,5′-tetramethylbenzidine (TMB) substrate (Biopanda, Cat: TMB-S-003) was added, and the plates were incubated at room temperature for 15 minutes. 100 μL of ELISA stopping solution (Solarbio, Cat #: C1058) was added to terminate the reaction, and the optical density at 450 nm (OD450 nm) was determined by an ELISA plate reader (Molecular Devices, Spectra max 384 plus).
On the technique in general: An ELISA detects its analyte on a solid surface through an enzyme-linked reagent.

Another test has as its target T3, CRH (NT-Biotin) (human and mouse (same sequence), not fully specified; biotin at the N-terminus).
T3 peptide: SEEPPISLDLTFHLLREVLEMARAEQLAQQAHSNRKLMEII
Kind of test: ELISA, biotinylated CRH on streptavidin plate. On the procedure: as §1

The target in a further test is T4, biotinylated CRH (human and mouse, not fully specified; biotinylated, position not stated).
T4 construct: also called Biotin-CRH; biotin-labeled CRH
T4 peptide: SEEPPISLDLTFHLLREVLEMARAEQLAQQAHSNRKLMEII
Kind of test: Octet BLI, biotinylated CRH on SA sensor. As for the experimental part: Octet® Red 96e was used for affinity measurement. Octet® running buffer was prepared by diluting kinetics buffer 10× (Fortebio, Cat #18-1105) in PBS according to the manufacturer's instructions. Two columns of SA sensors (Fortebio, Cat #18-5019) were hydrated in running buffer for 10 mins, one for ligand capturing and the other for reference. Antibodies were 2-fold diluted and added into a 96-well plate. […] After a 60-second baseline step, sensors were dipped into analyte and buffer wells successively, with the association and dissociation time of 180 seconds and 800 seconds, respectively. […] Signals of reference wells and reference sensors were subtracted by selecting “Double reference” before data fitting.
A general note: In BLI a coated tip is dipped into the sample, and binding shifts an interference pattern.

Another test addresses T5, CRH (NT Biotin) (human and mouse, not fully specified; biotin at the N-terminus).
T5 peptide: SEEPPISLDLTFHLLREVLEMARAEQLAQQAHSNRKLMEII
As to the kind of experiment: ELISA, biotin peptide on streptavidin plate. On the procedure:
as §1

The next test concerns the target T6, CRH (CT Biotin) (human and mouse, C-terminal K-Biotin).
T6 construct: also called Peptide 4 (CRH-Biotin)
T6 peptide: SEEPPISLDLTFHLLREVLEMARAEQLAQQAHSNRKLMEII
As to the kind of experiment: ELISA, biotin peptide on streptavidin plate. As for the experimental part:
as §1

In test [2] the target is T7, corticotropin-releasing hormone (CRH) peptide (human and mouse, not fully specified).
T7 peptide: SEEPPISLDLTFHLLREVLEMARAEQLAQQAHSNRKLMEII
As to the kind of experiment: cell-based or functional assay.

Another test deals with T8, human UCN1 peptide (human, UniProt P55089 83-122).
T8 peptide (looked up): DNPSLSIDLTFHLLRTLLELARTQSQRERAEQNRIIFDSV
Kind of test: cell-based or functional assay.

B1: PR006152 (antibody, human IgG1, kappa, V domains shown)
VH: EVQLVESGGVLVQPGGSLRLSCAASGFTFSSYWMTWVRQAPGKGLEWVANIKQDSSEKYYVDSVKGRFTISRDNAKNSLFLQMNSLRAEDTAVYYCARTLIFDYWGQGTLVTVSS
VL: DIVMTQSPLSLPVTPGEPASISCRSSQSLLHSTGYNPLEWYLQKPGQSPQLLIYLGSNRASGVPDRFSGSGSGTDFTLKISRVEAEDVGIYYCMQTLQTPITFGQGTRLEIKR
notes: PTM-removal variant of PR004290
What is called EC50 is the midpoint of the concentration-response curve. With B1, in test [1], the “hCRHR1 Luciferase Reporter Assay IC50” value came to 2.19 nM and the “mCrhr1 Luciferase Reporter Assay IC50” value came out at 4.4 nM. In addition, a half-maximal effect with CRH (CT-Biotin) (EC50) was put at 0.023 nM. For the same molecule, a half-maximal response with CRH (NT-Biotin) (EC50) required 0.028 nM.

B2: PR006153 (antibody, human IgG1, kappa, V domains shown)
VH: EVQLVESGGVLVQPGGSLRLSCAASGFTFSSYWMTWVRQAPGKGLEWVANIKQDSSEKYYVDSVKGRFTISRDNAKNSLFLQMNSLRAEDTAVYYCARTLIFDYWGQGTLVTVSS
VL: DIVMTQSPLSLPVTPGEPASISCRSSQSLLHSTGYSSLEWYLQKPGQSPQLLIYLGSNRASGVPDRFSGSGSGTDFTLKISRVEAEDVGIYYCMQTLQTPITFGQGTRLEIKR
notes: as for B1
Turning to B2, the “hCRHR1 Luciferase Reporter Assay IC50” value in test [1] is 12.4 nM. In test [1], the “mCrhr1 Luciferase Reporter Assay IC50” value is 39.5 nM. Besides, the concentration giving a half-maximal response (EC50) in the test with CRH (CT-Biotin) and with CRH (NT-Biotin) was 0.019 nM each time.

B3: PR006151 (antibody, human IgG1, kappa, V domains shown)
VH: EVQLVESGGVLVQPGGSLRLSCAASGFTFSSYWMTWVRQAPGKGLEWVANIKQDSSEKYYVDSVKGRFTISRDNAKNSLFLQMNSLRAEDTAVYYCARTLIFDYWGQGTLVTVSS
VL: DIVMTQSPLSLPVTPGEPASISCRSSQSLLHSTGYHSLEWYLQKPGQSPQLLIYLGSNRASGVPDRFSGSGSGTDFTLKISRVEAEDVGIYYCMQTLQTPITFGQGTRLEIKR
notes: as for B1
As for B3, in test [1], the “hCRHR1 Luciferase Reporter Assay IC50” value was found to be 13.6 nM and the “mCrhr1 Luciferase Reporter Assay IC50” value turned out to be 57.6 nM. Also, in the test with CRH (CT-Biotin), the EC50 stood at 0.023 nM. Also, in the test with CRH (NT-Biotin), the EC50 turned out to be 0.03 nM.

B4: PR006149 (antibody, human IgG1, kappa, V domains shown)
VH: EVQLVESGGVLVQPGGSLRLSCAASGFTFSSYWMTWVRQAPGKGLEWVANIKQDASEKYYVDSVKGRFTISRDNAKNSLFLQMNSLRAEDTAVYYCARTLIFDYWGQGTLVTVSS
VL: DIVMTQSPLSLPVTPGEPASISCRSSQSLLHSTGYSSLEWYLQKPGQSPQLLIYLGSNRASGVPDRFSGSGSGTDFTLKISRVEAEDVGIYYCMQTLQTPITFGQGTRLEIKR
notes: as for B1
Take B4: the “hCRHR1 Luciferase Reporter Assay IC50” value in test [1] came out at 8.04 nM. Moreover, in test [1], the “mCrhr1 Luciferase Reporter Assay IC50” value was 40.1 nM. Also, the 50% effective concentration (EC50) came to 0.027 nM with CRH (CT-Biotin) and 0.019 nM in the test with CRH (NT-Biotin).

B5: PR006150 (antibody, human IgG1, kappa, V domains shown)
VH: EVQLVESGGVLVQPGGSLRLSCAASGFTFSSYWMTWVRQAPGKGLEWVANIKQDSSEKYYVDSVKGRFTISRDNAKNSLFLQMNSLRAEDTAVYYCARTLIFDYWGQGTLVTVSS
VL: DIVMTQSPLSLPVTPGEPASISCRSSQSLLHSTGYDSLEWYLQKPGQSPQLLIYLGSNRASGVPDRFSGSGSGTDFTLKISRVEAEDVGIYYCMQTLQTPITFGQGTRLEIKR
notes: as for B1
For the molecule B5, in test [1], the “hCRHR1 Luciferase Reporter Assay IC50” value came out at 5.88 nM and the “mCrhr1 Luciferase Reporter Assay IC50” value was found to be 18.3 nM. The molecule further displayed an EC50 with CRH (CT-Biotin) of 0.016 nM. Also, the half-maximal effective concentration (EC50) in the test with CRH (NT-Biotin) amounted to 0.013 nM.

B6: PR302341 (antibody, human IgG1, kappa, V domains shown)
VH: EVQLQQSGPELVKPGASVKMSCKASGYTFTDYFMKWVKQSHGESLEWIGVINPNNGDIFYNQKFKGKATLTVDKSSSTAFMQLNSLTSEDSAVYSCARGTDRALFAYWGQGTLVAVSA
VL: DVLMTQTPLSLPVSLGDQASISCRSGQSIVHSDGNTYLEWYLQRPGQSPRLLIYKVSNRFSGVPDRFSGSGSGTDFTLKISRVGAEDLGIYYCFQGSHIPWTFGGGTKLEVKR
notes: Series 10; mouse variable domains with human IgG1 wildtype Fc
The term Kd denotes the free concentration of one partner at which half of the binding sites on the other are occupied at equilibrium, for simple one-to-one binding. Usually koff stands for a measure of how fast the partners let go of each other. The low end stands for slow dissociation, the high end for fast dissociation. By kon is commonly meant the rate constant with which the complex forms. A higher kon goes with fast association. Turning to B6, in the test with biotinylated CRH, the dissociation constant (Kd) was less than 0.001 nM, the koff turned out to be 2.18e-07 s⁻¹ and the association rate constant (kon) is 1.01e+06 M⁻¹ s⁻¹. For the same molecule, it took 0.023 nM to reach a half-maximal effect with CRH (NT Biotin) (EC50). In the test with CRH (CT Biotin), this molecule registered a half-maximal effective concentration (EC50) of 0.017 nM. The “CHO-CRE-hCRHR1 0.5 nM CRH IC50” value in test [2] was 0.503 nM and 0.437 nM. Besides, in the test with human UCN1 peptide, the “CHO-CRE-hCRHR1 1 nM hUCH1 IC50” value was determined as 19 nM and the “hUCN1 IC50/ CRH IC50” value was 40 fold.
